Laboratory results as given in patent US20200277361A1 (PROTHENA BIOSCIENCES, published 2020).

Legend:
[1] = biological target: T1, pH4.0-treated TTR (human, UniProt P02766 21-147); experiment: Sandwich ELISA (pH4-TTR)
[2] = biological target: recombinant human TTR F87M/L110M (human, UniProt P02766 21-147); experiment: SPR, mAb captured on anti-mouse IgG chip, TTR F87M/L110M as analyte
[3] = biological target: T1, pH4.0-treated TTR; experiment: ELISA, pH4-TTR captured on anti-His coated plate
[4] = biological target: T1, pH4.0-treated TTR; experiment: ELISA on pH4-treated TTR captured on an anti-His coated plate, anti-mouse HRP detection, OD450

Kd [1]: 21.3 nM
Kd [2]: 7.68 nM
koff [2]: 0.000469 s⁻¹
kon [2]: 61100 M⁻¹ s⁻¹
Kd [3]: 23 nM
EC50 (read off the curve) [4]: ~0.3 µg/mL
B1: mouse antibody 5A1 (antibody, IgG1, V domains shown)
VH: EVKLVESGGGLVRPGGSLKLSCAASGFTFSNYAMSWVRQTPEKRLEWVASISSGGSTYYPDSVKGRFTISRDNARNILYLQMSSLRSEDTAMYYCVRYYYGQYFDFWGQGTALTVSS
VL: DIVMTQSHKFMSTSVGDRVSITCKASQDVSTTVAWYRQKPGQSPELLIYSASYRCTGVPDRFTGSGSGADFTFTISSVQAEDLAVYYCQQHYSTPLTFGAGTKLELK
notes: also called m5A1; mis-TTR antibody 5A1
